# Assay results reported in publication PMC6013234, “DENR–MCTS1 heterodimerization and tRNA recruitment are required for translation reinitiation” (PLoS Biology, 2018).
# B1: NHis6-tagged DENR aas 24–51 (domain or fragment, human, UniProt O43583 24-51, looked up)
# chain: DADYPLRVLYCGVCSLPTEYCEYMPDVA
# notes: DENR, human, residues 24-51; also called DENR(aa24–51); DENR peptide; source: E. coli BL21 (DE3), coexpressed with untagged MCTS1; in lysate for the pull-down, purified (NiNTA, SEC) for crystallization; not shown: His6, N-terminal, kept
# Target: T1, untagged full-length WT MCTS1 (human, UniProt Q9ULC4 1-181)
# T1 construct: MCTS1, human, ORF in pETDuet under its own T7 promotor, untagged; also called MCT-1; source: E. coli BL21 (DE3), coexpressed with HIS-tagged DENR variants; in lysate for the pull-down, co-purified (NiNTA, SEC) for crystallization
# T1 sequence (looked up): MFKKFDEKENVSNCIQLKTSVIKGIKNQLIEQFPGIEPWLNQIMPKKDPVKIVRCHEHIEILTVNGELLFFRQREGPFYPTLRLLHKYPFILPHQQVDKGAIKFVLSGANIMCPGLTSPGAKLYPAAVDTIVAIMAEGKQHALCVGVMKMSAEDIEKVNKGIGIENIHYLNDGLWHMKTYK
# Experiment: pull-down; N-terminally HIS-tagged DENR variants or fragments coexpressed with untagged MCTS1 in E. coli; DENR purified over a nickel column, copurifying MCTS1 detected in the eluate
# Conditions: partners not purified
binder,measurement,value
B1,binding result,binds
